Our source for the IC50 and binding affinity ratio (IC50 of standard peptide / IC50 of test peptide) values is US20090304746A1.

Where two headings read alike, the source gives them in different places. No end group written: not given here. Where only a bound is given, the exact number is not on record here.

Assay [1] addresses HLA-A*03 (purified HLA class I molecule) (human).
The target in assay [2] is HLA-A*3301 (human).
For assay [3], the target named is HLA-A*6801 (human). Kind of assay: competition with 125I-labelled standard peptide on purified HLA, gel filtration. In general terms: In gel filtration, larger molecules generally elute earlier.
Assay [4] concerns the target HLA-A*3101 (human). Described as above.
Assay [5] addresses HLA-A*0301 (human). The assay is described as above.
In assay [6] the target is HLA-A*6801 (human). Kind of assay: competition with 125I-labeled standard peptide on purified HLA, gel filtration.
For assay [7], the target named is HLA-A*3101 (human). Described as above.
The target in assay [8] is HLA-A*1101 (human). The description is as above.
In assay [9] the target is HLA-A*3301 (human). Described as above.
Assay [10] deals with HLA-A*0301 (human). Described as above.
Assay [11] addresses HLA-A*6801 (human). The experiment in a line: competition with 125I-labelled standard peptide for purified HLA, gel filtration.
In assay [12] the target is HLA-A*3101 (human). Described as above.
In another assay the target is HLA-A*2401 (human). Described as above.
For the next assay, the target named is HLA-B*5301 (human). The following applies: remark: other sources report otherwise.
The target of the next assay is HLA-B*5401 (human). The settings on record: remark: other sources report otherwise.
Another assay deals with HLA-B*51 (human). The following applies: remark: other sources report otherwise.
Assay [13] deals with HLA-B*3501 (human). The following applies: remark: other sources report otherwise.
Assay [14] addresses HLA-A*6801 (purified HLA class I molecule) (human). The settings on record: remark: other sources report otherwise.
Assay [15] deals with HLA-A*1101 (human).
Assay [16] has as its target HLA-A*0202 (human), P30375. The experiment in a line: competition with 125I-labeled probe for purified HLA, gel filtration.
For a further assay, the target named is HLA-A*6802 (human). Described as above.
Assay [17] concerns the target HLA-A*0201 (human). Described as above.
For a further assay, the target named is HLA-B*0702 (human). The settings on record: remark: other sources report otherwise.
In assay [18] the target is HLA-B*3501 (human). The following applies: remark: other sources report otherwise. This is another data set of the same source.
Another assay addresses HLA-A*0206 (human). The experiment in a line: competition with 125I-labelled standard peptide for purified HLA, gel filtration.
The target of assay [19] is HLA-A*0201 (human). The assay is described as above.
Assay [20] addresses HLA-DR3 (DRB1*0301) (human). The experiment in a line: competition with 125I-labeled probe for purified HLA-DR3, gel filtration. The following applies: remark: other sources report otherwise.

The term IC50 denotes the concentration that inhibits the measured activity by half. The low end stands for higher potency, the high end for lower potency. AACNWTRGER (modifications not checked) [Peptide 24.0103 (HCV NS1/E2 647, …)] returned an IC50 in [1] of 36.7 µM.
As for PTGSGKSTK (modifications not checked) [HCV peptide … (polyprotein position 1236)], the binding affinity ratio (IC50 of standard peptide / IC50 of test peptide) with HLA-A*3301 (human) [2] was determined as 0.0006; with HLA-A*6801 (human) [3], 0.0002; with HLA-A*3101 (human) [4], 0.0008; in the assay with HLA-A*0301 (human) [5], 0.0002.
As to VAYQATVCAR (modifications not checked) [HCV peptide … (HCV polyprotein position 1592)], the binding affinity ratio (IC50 of standard peptide / IC50 of test peptide) with HLA-A*6801 (human) [6] was determined as 0.028; with HLA-A*3101 (human) [7] it was 0.068; with HLA-A*1101 (human) [8] it was 0.0036; with HLA-A*3301 (human) [9], 0.072; in the assay with HLA-A*0301 (human) [10], 0.0005.
With ITRVESENK (modifications not checked) [HCV peptide … (polyprotein position 2250)], the binding affinity ratio (IC50 of standard peptide / IC50 of test peptide) with HLA-A*6801 (human) [11] was 0.0092; in the assay with HLA-A*3101 (human) [12] it was 0.0007.
For the molecule NIVDVQYLY (modifications not checked), in the assay with HLA-A*2401 (human), the binding affinity ratio (IC50 of standard peptide / IC50 of test peptide) is 0.0001.
Regarding NPAIASLMAF (modifications not checked) [Peptide 15.0237, HCV NS4 1789], the IC50 is above 30 µM with HLA-B*5301 (human), above 30 µM in the assay with HLA-B*5401 (human), 5 µM with HLA-B*51 (human) and 9 µM in the assay with HLA-B*3501 (human) [13].
AVCTRGVAK (modifications not checked) [Peptide 1090.23 (HCV LORF 1183, …)]: in [14], the IC50 was above 30 µM.
LSNSLLRHH (modifications not checked): the binding affinity ratio (IC50 of standard peptide / IC50 of test peptide) in the assay with HLA-A*1101 (human) [15] amounted to 0.0001.
YLVAYQATV (modifications not checked) [HCV NS4 1590 peptide 1013.02]: the IC50 in assay [16] amounted to 0.039 µM; with HLA-A*6802 (human) it was 0.033 µM; with HLA-A*0201 (human) [17], 0.02 µM.
Consider LPINALSNSL (modifications not checked) [Peptide 29.0085, HCV NS5 2474], for which the IC50 in the assay with HLA-B*0702 (human) was 0.22 µM; with HLA-B*3501 (human) [18], 18 µM.
Turning to ILGGWVAAQL (modifications not checked) [HCV peptide … (HCV polyprotein position 1816)], the binding affinity ratio (IC50 of standard peptide / IC50 of test peptide) was 0.0005 with HLA-A*0206 (human) and 0.043 with HLA-A*0201 (human) [19].
On to GMQLAEQFKQKALGL (not fully specified) [HCV 1726 DR3B-motif 15-mer […] (core …)], for which the binding affinity ratio (IC50 of standard peptide / IC50 of test peptide) in [20] amounted to 0.019.
